# Experimental data taken from patent US20260176701A1 (BRIGHAM AND WOMEN S HOSPITAL, published 2026).
# T1: recombinant human ORF1p (LINE-1 open reading frame 1 protein, L1RP) (human, UniProt Q9UN81 1-338)
# T1 construct: Expressed in E. coli, tag cleaved, monodisperse homotrimer; Immobilized on the CM5 chip in SPR; also called trimeric ORF1p
# T1 sequence: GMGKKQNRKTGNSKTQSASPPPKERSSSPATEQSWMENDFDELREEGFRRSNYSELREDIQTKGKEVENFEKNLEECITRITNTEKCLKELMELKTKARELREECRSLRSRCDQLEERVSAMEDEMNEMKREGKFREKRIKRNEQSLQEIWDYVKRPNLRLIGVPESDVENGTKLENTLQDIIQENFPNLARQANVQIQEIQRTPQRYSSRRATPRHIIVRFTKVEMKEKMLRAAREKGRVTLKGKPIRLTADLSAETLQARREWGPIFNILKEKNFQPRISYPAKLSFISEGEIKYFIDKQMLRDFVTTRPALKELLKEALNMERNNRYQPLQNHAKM
# B1: anti-ORF1 Nb dimer 6 Nb5-Nb5 long linker (MT997) (bispecific antibody)
# chain: QVQLVESGGDLVQAGGSLRLSCAVSGGTSSNYGMGWFRQAPGKEREFVSSISWSGSRTLYSDSVKGRFTISRDNAKNTVDLQMNSLKPEDTAVYYCTAVREYRDYPQRDNFDYWGQGTQVTVSGGGGSGGGGSGGGGSGGGGSEAAAKEAAAKEAAAKSGGGGSGGGGSGGGGSGGGGSMAQVQLVESGGDLVQAGGSLRLSCAVSGGTSSNYGMGWFRQAPGKEREFVSSISWSGSRTLYSDSVKGRFTISRDNAKNTVDLQMNSLKPEDTAVYYCTAVREYRDYPQRDNFDYWGQGTQVTVSHHHHHH
# notes: Homodimeric tandem nanobody, long linker of 56 residues; also called Nb 5-5 long; Nb5-5LL
# B2: anti-ORF1 Nb dimer 3 Nb5-Nb5 (MT993) (bispecific antibody)
# chain: QVQLVESGGDLVQAGGSLRLSCAVSGGTSSNYGMGWFRQAPGKEREFVSSISWSGSRTLYSDSVKGRFTISRDNAKNTVDLQMNSLKPEDTAVYYCTAVREYRDYPQRDNFDYWGQGTQVTVSGGGGSGGGGSGGGGSGGGGSMAQVQLVESGGDLVQAGGSLRLSCAVSGGTSSNYGMGWFRQAPGKEREFVSSISWSGSRTLYSDSVKGRFTISRDNAKNTVDLQMNSLKPEDTAVYYCTAVREYRDYPQRDNFDYWGQGTQVTVSHHHHHH
# notes: Homodimeric tandem nanobody, short linker; also called Nb 5-5; Nb5-5
# B3: anti-ORF1 Nb dimer 5 Nb5-Nb2 (MT995) (bispecific antibody)
# chain: QVQLVESGGDLVQAGGSLRLSCAVSGGTSSNYGMGWFRQAPGKEREFVSSISWSGSRTLYSDSVKGRFTISRDNAKNTVDLQMNSLKPEDTAVYYCTAVREYRDYPQRDNFDYWGQGTQVTVSGGGGSGGGGSGGGGSGGGGSMADVQLVESGGGLVQAGGSLRLSCAASGRTDDIYTMGWFRQGPGKEREFVAVISWSITRRSSITHYADSVKGRFTISGENAENTVYLQMNTLKPEDTAVYYCAAKTGYSGSMSSYQDYDSWGQGTQVTVSHHHHHH
# notes: Heterodimeric tandem nanobody, short linker; also called Nb 5-2; Nb5-2 pMT995
# B4: anti-ORF1 Nb dimer 2 Nb2-Nb2 (MT992) (VHH)
# chain: DVQLVESGGGLVQAGGSLRLSCAASGRTDDIYTMGWFRQGPGKEREFVAVISWSITRRSSITHYADSVKGRFTISGENAENTVYLQMNTLKPEDTAVYYCAAKTGYSGSMSSYQDYDSWGQGTQVTVSGGGGSGGGGSGGGGSGGGGSMADVQLVESGGGLVQAGGSLRLSCAASGRTDDIYTMGWFRQGPGKEREFVAVISWSITRRSSITHYADSVKGRFTISGENAENTVYLQMNTLKPEDTAVYYCAAKTGYSGSMSSYQDYDSWGQGTQVTVSHHHHHH
# notes: Homodimeric tandem nanobody, short (GGGGS)x4 linker; also called Nb 2-2; Nb2-2 pMT992
# B5: anti-ORF1 Nanobody 5 (Nb5) (VHH)
# VHH: QVQLVESGGDLVQAGGSLRLSCAVSGGTSSNYGMGWFRQAPGKEREFVSSISWSGSRTLYSDSVKGRFTISRDNAKNTVDLQMNSLKPEDTAVYYCTAVREYRDYPQRDNFDYWGQGTQVTVSH
# notes: Llama nanobody; also called Clone 5; C5
# B6: anti-ORF1 Nb dimer 4 Nb5-Nb1 (MT994) (bispecific antibody)
# chain: QVQLVESGGDLVQAGGSLRLSCAVSGGTSSNYGMGWFRQAPGKEREFVSSISWSGSRTLYSDSVKGRFTISRDNAKNTVDLQMNSLKPEDTAVYYCTAVREYRDYPQRDNFDYWGQGTQVTVSGGGGSGGGGSGGGGSGGGGSMADVQLVESGGGLVQAGESLRLSCAASGRTLSSLNMAWFRQVPGKERDFVSLISRSGSTDYVHSVRGRFTISRDNAKNTVYLEMNSLKPEDTAVYYCAADDNYNGRYPFRDEYEYWGQGTQVTVSHHHHHH
# notes: Heterodimeric tandem nanobody, short linker; also called Nb 5-1; Nb5-1 pMT994
# B7: anti-ORF1 Nanobody 21 (Nb21) (VHH)
# VHH: QVQLAESGGGLVQAGGSLRLSCAASGRTSTIYIMGWFRQAPGKDREFVAGITYTGGYPYYADSVQGRFTLSNDNADHTAYLQMNNLKPEDSAVYYCAARSRGGITTHERDFGSWGQGTQVTVSH
# notes: Llama nanobody
# B8: anti-ORF1 Nanobody 9 (Nb9) (VHH)
# VHH: QVHLVESGGKLVQAGESLKLSCEVSGRTFSISGAGWFRQAPGKEREFVAAITWTGGYPYYDASVKGRFTISREDPDNTVYLSMNSLKPEDTAVYYCATRRAGDLDFSYAQQGRYDNWGQGTQVTVSH
# notes: Llama nanobody
# B9: anti-ORF1 Nb trimer Nb5-Nb5-Nb5 (MT996) (bispecific antibody)
# chain: QVQLVESGGDLVQAGGSLRLSCAVSGGTSSNYGMGWFRQAPGKEREFVSSISWSGSRTLYSDSVKGRFTISRDNAKNTVDLQMNSLKPEDTAVYYCTAVREYRDYPQRDNFDYWGQGTQVTVSGGGGSGGGGSGGGGSGGGGSMAQVQLVESGGDLVQAGGSLRLSCAVSGGTSSNYGMGWFRQAPGKEREFVSSISWSGSRTLYSDSVKGRFTISRDNAKNTVDLQMNSLKPEDTAVYYCTAVREYRDYPQRDNFDYWGQGTQVTVSGGGGSGGGGSGGGGSGGGGSMAQVQLVESGGDLVQAGGSLRLSCAVSGGTSSNYGMGWFRQAPGKEREFVSSISWSGSRTLYSDSVKGRFTISRDNAKNTVDLQMNSLKPEDTAVYYCTAVREYRDYPQRDNFDYWGQGTQVTVSHHHHHH
# notes: Homotrimeric tandem nanobody; also called Nb 5-5-5
# B10: anti-ORF1 Nanobody 10 (Nb10) (VHH)
# VHH: QVQLVESGGGLVQAGESLRLSCQVSGRTFSISGAGWFRQAPGKEREFVAAITWTGGYPYYATSVKGRFTIARDDPENRVYLSMNSLKPEDTAVYYCATRRAGSLDFDYAQQTRYDNWGQGTQVTVSH
# notes: Llama nanobody
# B11: anti-ORF1 Nanobody 2 (Nb2) (VHH)
# VHH: DVQLVESGGGLVQAGGSLRLSCAASGRTDDIYTMGWFRQGPGKEREFVAVISWSITRRSSITHYADSVKGRFTISGENAENTVYLQMNTLKPEDTAVYYCAAKTGYSGSMSSYQDYDSWGQGTQVTVSH
# notes: Llama nanobody
# B12: 34C5 (antibody, V domains shown)
# VH: QSVEESGGRLVKPDESLTLTCTVSGFSLSAYEMGWVRQAPGKGLEWIAAISTGDTPYYATWTKGRFTISRASSTTVDLKMTSPTTEDTATYFCARYGHNYEYVFDLWGQGTLVTVSS
# VL: AYDMTQTPASVSAAVGGTVTINCQASQSIGSYLSWYQQKPGQPPKLLIYSASTLASGVPSRFSGSGYGTEFTLTIGGVQCDDAAAYYCQQGESIGSVHNVFGGGTEVVVA
# notes: Rabbit monoclonal antibody; also called 34C5-1
# B13: 36D12 (antibody, V domains shown)
# VH: QSVEESGGRLVTPGTPLTLTCTVSGFSLSTYAMGWFRQAPGKGLEWIGTIWSGAFTDYANWVNGRFTISKTSTTVDLKITSPTTEDTATYFCAREADSDLYTYFKLWGPGTLVTVSS
# VL: AYDMTQTPASVEVAVGGTVTLKCQASESIEIYLAWYQQKPGQPPKLLVYDASTLASGVPSRFKGSGSGTQFTLTISGVECADAATYYCQQGYRSDNVHNVFGGGTEVVVK
# notes: Rabbit monoclonal antibody; also called 36D12-1
# B14: 42D10 (antibody, V domains shown)
# VH: QSVEESGGRLVTPGTPLTLTCTVSGFSLSSYAMTWVRQAPGKGLEWIGYIYAGGIADYANWAKGRFTISKTSTTVDLTITSPTTEDTATYFCAREGDSDDYVYLSLWGPGTLVTVSS
# VL: ALVMTQTPSSVSAAVGGTVTINCQASQSIVGYLAWYQQKPGQPPKLLIYRASTLASGVSSRFKGSGSGTEFTLTISGVQCADAATYYCQQGYINSNIDNTFGGGTEVVVK
# notes: Rabbit monoclonal antibody; also called 42D10-1
# B15: 34H7 (antibody, V domains shown)
# VH: QSLEESGGDLVKPGASLTLTCTASGFSLNNYVMYWVRQAPGKGLESIACIYTGSGTTYYATWAKGRFTISKTSSTTVTLQMTSLTAADTATYFCARRTYTSDSYAGSFNLWGPGTLVTVSS
# VL: AYDMTQTPASVSEPVGGTVTIKCQASQSIGSNLAWYQQKPGQRPKLLIYAASYLASGAPSRFKGSGSGTEFTLTISGVQCDDAATYYCQQGWSSSDVDSTFGGGTEVVVK
# notes: Rabbit monoclonal antibody; also called 34H7-1; 37H7
# B16: 33A8 (antibody, V domains shown)
# VH: QSLEESGGGLVQPEGSLTLTCKASGFSFINNNHICWVRQAPGKGLEWIACIYAGSTGYTYYANWAKGRFTISKTSSTTVTLQMTSLTAADTATYFCARVPYAGYVNYGYTFFNLWGPGTLVTVSS
# VL: AAVLTQTPSPVSAPVGGTVTISCQSSQSVYRTNDLAWYQQKPGQPPKLLIYWASKLAAGVPSRFKGSGSGTQFTLTISGVQCDDAATYYCLGGYYDDGDLNAFGGGTEVVVN
# notes: Rabbit monoclonal antibody; also called 33A8-1
# B17: 61A11 (antibody, V domains shown)
# VH: QSVEESGGRLVTPGTPLTLTCTVSGIDLSSYVMGWVRQAPGKGLDWIGMIDTHDDTYFAPWARGRFTISRTSSTTVDLKVASTTTEDTATYFCAGNLALWGRGTLVTVSS
# VL: AQVLTQTPSPVSVAVGGTVTISCQSSQSVSSDNWLGWYQQKPGQPPKLLIYRASKLASGVSSRFKGSGSGTQFILTISDLECDDAATYYCAGGYSGSIIAFGGGTEVVVK
# notes: Rabbit monoclonal antibody; also called 61A11-1
# Target: T1, recombinant human ORF1p (LINE-1 open …)
# Test: SPR (Biacore 8K), ORF1p immobilized on CM5, single-cycle kinetics, 1:1 fit
# Description: Surface plasmon resonance (SPR) assays. Binding kinetics (kₐ, kd, and KD) of antibody and nanobody constructs for ORF1p were obtained on a Biacore 8K instrument (Cytiva). Recombinant ORF1p was immobilized on a Series S CM5 sensor chip at 1.5 μg/ml using EDC/NHS coupling chemistry according to the manufacturer's guidelines. Nanobodies and antibodies were prepared as analytes and run in buffer containing 20 mM HEPES pH 7.4, 150 mM NaCl, and 0.05% Tween-20. Analytes were injected at 30 μl/min in single-cycle kinetics experiments at concentrations of 0.1, 0.3, 1, 3.3, and 10 nM, with association times of 120-180 sec, and a dissociation time of 1200-7200 sec, depending on observed off-rate. Residual bound protein was removed between experiments using 10 mM glycine-HCl pH 3.0. Data were analyzed using Biacore software, fitting a Langmuir 1:1 binding model to sensorgrams to calculate kinetic parameters.
row,Kd [nM],Binder
1,0.0098,B1
2,0.07,B2
3,0.036,B3
4,0.0092,B4
5,0.11,B5
6,0.083,B6
7,0.24,B7
8,0.19,B8
9,0.027,B9
10,0.19,B10
11,0.48,B11

# Target: T1, recombinant human ORF1p (LINE-1 open …)
# Test: Simoa sandwich, recombinant ORF1p at 40 pg/mL in diluent buffer, signal/background heat map; capture on the x axis, detector on the y axis
# Description: ORF1p Simoa assays. Simoa assays were performed on an HD-X Analyzer (Quanterix Corp.), with all assay reagents and consumables loaded onto the instrument according to the manufacturer's instructions. 250,000 capture beads and 250,000 helper (non-conjugated) beads were used in each Simoa assay. A three-step assay configuration was used for the first- and second-generation assays, consisting of a 15-minute target capture step (incubation of capture beads with 100 μL sample), 5-minute incubation with detector reagent (0.3 μg/mL for both first- and second-generation assays), and 5-minute incubation with streptavidin-β-galactosidase (150 pM for first-generation assay; 300 pM for second-generation assays). The beads were washed with System Wash Buffer 1 (Quanterix Corp.) after each assay step. Upon the final wash cycle, the beads were loaded together with the fluorogenic enzyme substrate resorufin β-D-galactopyranoside into a 216,000-microwell array, which was subsequently sealed with oil. Automated imaging and counting of “on” and “off” wells and calculation of average enzyme per bead (AEB) were performed by the instrument. Calibration curves were fit using a 4PL fit with a 1/y² weighting factor, and the limit of detection (LOD) was determined as three standard deviations above the blank.
# Signal/background was also determined for a number of the pairs by Simoa using recombinant ORF1p protein in diluent buffer; the results are shown in FIG. 15. When the rabbit monoclonal antibodies were used as capture and detector, the background was high. The best combinations were the rabbit monoclonal antibodies as capture/Ab6 detector; Nb5-5 capture/rabbit monoclonal antibodies detector; and 4H1 capture/rabbit monoclonal antibody detector pairs.
row,binding result,Binder
1,binds,B12
2,binds,B13
3,binds,B14
4,binds,B15
5,binds,B16
6,binds,B17
